Test results reported in patent US20180163180A1, “METHOD OF ENHANCING SOMATIC CELL REPROGRAMMING WITH THE ACETYLLYSINE READER BRD3R” (THE UAB RESEARCH FOUNDATION, INC ., priority 2015, published 2018).

B1: BRD3R shRNA: shRNA that specifically targets BRD3R (SEQ ID NO: 42 and 43) (nucleic acid)
chain 1: CTAGGAACCTCTGTAATTGTTTCCTGGCTCGAGCCAGGAAACAATTACAGAGGTTCTTTTTT
chain 2: AAAAAAGAACCTCTGTAATTGTTTCCTGGCTCGAGCCAGGAAACAATTACAGAGGTTC
B2: LIN28: established reprogramming factor (protein, UniProt Q9H9Z2 2-209, looked up)
Protein lin-28 homolog A: GSVSNQQFAGGCAKAAEEAPEEAPEDAARAADEPQLLHGAGICKWFNVRMGFGFLSMTARAGVALDPPVDVFVHQSKLHMEGFRSLKEGEAVEFTFKKSAKGLESIRVTGPGGVFCIGSERRPKGKSMQKRRSKGDRCYNCGGLDHHAKECKLPPQPKKCHFCQSISHMVASCPLKAQQGPSAQGKPTYFREEEEEIHSPTLLPEAQN

What was measured:
BJ cells [1] = experiment: Reprogramming of human fibroblasts scored by TRA-1-60+ colonies/clusters; assay type: cell-based; conditions: for reprogramming activity (TRA-1-60+ colonies): used with 3F in BJ cells, compared to OSK-GFP control
Protocol: Briefly (FIG. 1A), 2×10^4 of BJ cells were seeded in each well of a 24-well plates. The second day, fibroblasts were transduced with OCT4 (10 MOI), SOX2 (5 MOI), KLF4 (5 MOI) along with 250 μl of individual kinase viral supernatant freshly packaged in one well of a 6-well plate. Twenty-two cDNAs were evaluated in one 24-well plate. One well is OSK control, and one well of cells is transduced with OSK plus 250 μl of GFP viral supernatant as a second control. Virus was removed next day with fresh fibroblast medium. Forty-eight hours after transduction, fibroblasts were transferred from one well into a 60-mm dish for continued reprogramming. The next day of re-seeding, fibroblast medium was replaced with E7 medium (E8 minus TGF beta) plus 100 μM of sodium butyrate. From day 18 of reprogramming on, E8 media was used. On day 25 of reprogramming, reprogramming dishes were stained for ALP or TRA-1-60 markers.
• Concentration of virus: The reprogramming viruses (OCT4, SOX2, KLF4, MYC and BET members) were concentrated before use except for library viruses. The lentiviral supernatant was centrifuged at 3,000×g for 10 mins at 4° C. to remove the cell debris. Thirty ml of the viral supernatant was then transferred into each 50-ml tube. 7 ml of 50% PEG-6000 stock solution (final concentration of 8.5%) and 4.1 ml of 4 M NaCl stock solution was added to each tube (final concentration of 0.4 M). The virus mixture was stored at 4° C. for 3-5 h.
• Cell culture and reprogramming: Human fibroblast cells (BJ ATCC CRL-2522®) were cultured in fibroblast medium: DMEM, 10% heat-inactivated FBS, 0.1 mM 2-mercaptoethanol, 100 U/ml penicillin, 100 μg/ml streptomycin, 0.1 mM MEM NEAA and 4 ng/ml human bFGF. For reprogramming, seed BJ cells into 24-well plate at 2×10^4 cells/well. Twenty-four hours after plating, pre-mix the OSK (OCT4, 10 MOI; SOX2, 5 MOI and KLF4, 5 MOI) viruses (shown in FIGS. 6B-6D, SEQ ID NO: 58-60, respectively), and add the OSK virus along with 250 μl supernatant of individual kinase virus into respective wells. Incubate overnight. Next morning, remove viruses by replacing virus-containing medium with fresh fibroblast medium. Twenty-four hours after transduction, the cells were re-seeded from one well into one matrigel-coated 60-mm dish. Next day, replace fibroblast medium with reprogramming media (E7 plus sodium butyrate at 100 μM). On 18 day, start to use E8 media. On day 25 of reprogramming, stain the reprogramming cells for alkaline phosphatase or TRA-1-60.

BJ cells [2] = experiment: Sensitivity test of the optimized small-vessel reprogramming protocol (ALP staining); assay type: cell-based, human; conditions: n=3
Text: • Optimization of screening protocol: Several strategies to make the screening of cDNA library more efficient and sensitive were used. First, the lentiviral reprogramming vector was modified so that it is more efficient and consistent in reprogramming human cells. This was achieved by using EF1a promoter and co-expression of GFP, which makes titration of viral vectors easier and faster. Second, the efficient Gateway cloning was used to transfer the human kinase library onto the modified lentiviral destination vector. 24 randomly selected of the 89 cloned cDNAs were sequenced, and verified precise cloning for all of the 24 genes. Third, a protocol to simultaneously package 24×n individual transgene viruses in individual wells of 6-well plates was established. The kinase virus was not concentrated and the supernatant directly used in screening protocol. Almost 100% of transduction of BJ cells in one well of a 24-well plate with 250 μl of supernatant using GFP reporter construct on the same destination vector (FIGS. 6J and 6K) was achieved. […] To test the sensitivity of the new screening protocols, the reprogramming activities of two established reprogramming factors: NANOG and LIN28, were evaluated. […]
Briefly (FIG. 1A), 2×10^4 of BJ cells were seeded in each well of a 24-well plates. […] Twenty-two cDNAs were evaluated in one 24-well plate. […]

[3] = target: T1, tetra-acetylated H4 (H4K5/8/12/16Ac) (Homo sapiens, UniProt P62805); experiment: Histone peptide pull-down assay; assay type: binding; conditions: lysates of human fibroblasts overexpressing BRD3R or BRD3; western with BRD3 antibody
T1 construct: Histone tails used for peptide pull-down experiments; Peg-biotin (chemical label); incubated with lysate of human BJ fibroblasts transduced with BRD3R or BRD3 virus
Protocol: • Histone peptide pull-down assay: H3 or H4 histone tails with 8 different acetylation modifications were evaluated for binding with BRD3R and BRD3. One unmodified tail for each histone was used for negative control.
Human BJ fibroblasts were transduced with BRD3 or BRD3R viruses. Three days post-transduction, cells were lysed by non-denaturing lysis buffer (20 mM HEPES pH 7.9, 150 mM NaCl, 1 mM MgCl2, 0.5% NP40, 10 mM NaF, 0.2 mM NaVO4, 10 mM β-glycerol phosphate, 5% glycerol, 1 mM DTT, 1 mM PMSF and protease inhibitors). Twenty μg of the cell lysates were incubated with 1 μg biotinylated peptide in 300 μl binding buffer (50 mM Tris pH 7.5, 150 mM NaCl, 0.1% NP-40, 1 mM PMSF and protease inhibitors) at 4° C. for overnight. The next day, 30 μl of Dynabeads M-280 Streptavidin was added into each sample (Invitrogen, 11205D). The mixture of proteins, antibodies and beads were further incubated with gentle rotation at 4° C. for 1 h. The beads were then washed with binding buffer three times. The bound proteins were resuspended in 60 μl of 2× SDS sample buffer. The pull-down proteins were analyzed by western using antibody of BRD3 (Proteintech, 11859-1-AP). Two micrograms of cell lysates were loaded as input control. For semi-quantification, band density was normalized to the corresponding inputs.

BRD3R mRNA = experiment: Knockdown of BRD3R mRNA by shRNA (RT-qPCR); assay type: cell-based, human
Protocol: • shRNA cloning: BRD3R shRNAs at XbaI and HpaI sites on the shRNA vector PLVH-U6-EF1a-AcGFP were cloned. Correct cloning was verified by sequencing. An shRNA targeting the firefly luciferase was used as a control.
• RT-qPCR: Cells were harvested with Trizol reagent and stored at −80° C. until use. Total RNA was extracted using the Direct-zol™ Miniprep kit (R2052). cDNA was prepared using the M-MLV reverse transcriptase (cat #28025-013) per manufacturer's instruction. Quantitative PCR was performed on ViiA 7 Real-time PCR system (Applied Biosystem) using SYBR-Green Master PCR mix (Clontech, Cat #639676) in triplicates. All quantifications were normalized to an endogenous GAPDH control.

| Molecule | reprogramming activity (TRA-1-60+ colonies) (BJ cells [1]) | increase in reprogramming efficiency (BJ cells [2]) [×] | other results |
| --- | --- | --- | --- |
| BRD2: BET subfamily bromodomain protein | none did | – | – |
| NANOG: established reprogramming factor [reference compound] | – | 5.1 | – |
| BRD3: canonical BRD3 (NP_031397; 726 aa, SEQ ID NO: 45), BET bromodomain protein | none did | – | binding to H4K5/8/12/16Ac peptide [3]: weaker than BRD3R |
| B1 | – | – | impairment of reprogramming (BJ cells [1]; BRD3R knockdown by shRNA, TRA-1-60 staining): 58%; knockdown of BRD3R mRNA (BRD3R mRNA): significant knockdown |
| B2 | – | 2.4 | – |
